The assay deals with human CD20 on WIL2-S B lymphoblast cells (human) (UniProt P11836). The assay is described as follows: cell-based or functional assay.
Chain of UniProt P11836 (P11836 whole entry): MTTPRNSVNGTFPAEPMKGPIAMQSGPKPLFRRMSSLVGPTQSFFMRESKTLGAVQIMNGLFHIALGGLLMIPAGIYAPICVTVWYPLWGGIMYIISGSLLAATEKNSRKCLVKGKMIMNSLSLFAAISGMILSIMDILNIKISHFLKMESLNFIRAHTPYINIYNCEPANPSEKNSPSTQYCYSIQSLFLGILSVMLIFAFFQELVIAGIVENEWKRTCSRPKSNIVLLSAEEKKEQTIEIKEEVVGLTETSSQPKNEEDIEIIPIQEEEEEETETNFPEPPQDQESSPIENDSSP

In turn, Rituximab (antibody) yielded a CDC activity above background cell lysis at 0.4 µg/mL Rituximab of 25 to 30%; a Rituximab concentration at maximal cell lysis (CDC, WIL2-S cells, … GLO) of 5 µg/mL; a percentage of live cells remaining at 1 µg/mL Rituximab (control) of 40%.

For the origin of these results see patent US20060263349A1.
